In patent US20110300156A1 (Genmab, published 2011):

Columns and labels:
[1] = target: T1, human tissue factor (TF), membrane-bound on cells (human, UniProt P13726 33-295); assay: FACS, A431 cells, 30 µg/mL
T1 construct: whole, on cells; also called cellular TF
Method: (§1) Cells were resuspended in PBS (2×10⁶ cells/ml), put in 96-well V-bottom plates (50 μl/well). 50 μl of serially diluted HuMab in FACS buffer (PBS supplemented with 0.1% BSA and 0.02% Na-azide) was added to the cells and incubated for 30 minutes on ice. After washing three times with FACS buffer, 50 μl of phycoerythrin (PE)-conjugated goat anti-human IgGFc (Jackson ImmunoResearch), diluted 1:100 in FACS buffer, was added. After 30 minutes on ice (in the dark), cells were washed three times, and specific binding of the HuMabs was detected by flow cytometry on a FACSCalibur (BD Biosciences). HuMab-KLH was used as a negative control. Mouse anti-TF followed by PE-conjugated anti-mouse IgGFc was used as positive control. Binding curves were analyzed using non-linear regression (sigmoidal dose-response with variable slope) using GraphPad Prism V4.03 software (GraphPad Software, San Diego, Calif., USA).

[2] = target: T1, human tissue factor (TF), …; assay: FACS, MDA-MB-231 cells, 30 µg/mL
Method: as §1

[3] = target: T1, human tissue factor (TF), …; assay: FACS, MDA-MB-231 cells
Method: as §1

[4] = target: T1, human tissue factor (TF), …; assay: FACS, TF transfected CHO cells (S1015-TF)
Method: as §1

[5] = target: T1, human tissue factor (TF), …; assay: FACS, Bx-PC3 cells
Method: as §1

[6] = target: T2, murine tissue factor (TF) on transfected HEK293F cells (murine, UniProt P20352 29-294); assay: FACS on transfected HEK293F cells, 30 µg/mL antibody [panel H]
T2 construct: whole, on cells; also called murine TF; TFmm
T2 sequence (looked up): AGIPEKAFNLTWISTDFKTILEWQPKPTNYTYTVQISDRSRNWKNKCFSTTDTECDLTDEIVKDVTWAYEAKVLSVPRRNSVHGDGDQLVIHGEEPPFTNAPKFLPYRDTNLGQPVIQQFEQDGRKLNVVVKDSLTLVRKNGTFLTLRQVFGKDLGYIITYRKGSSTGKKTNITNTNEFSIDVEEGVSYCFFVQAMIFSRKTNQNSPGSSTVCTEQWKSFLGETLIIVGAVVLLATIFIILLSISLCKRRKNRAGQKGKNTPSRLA

[7] = target: T1, human tissue factor (TF), …; assay: FACS, A431 cells
Method: as §1

[8] = target: T1, human tissue factor (TF), …; assay: cell-based or functional assay
TF (Innovin) [9] = target: T3, TF (Innovin) (UniProt P13726 33-295, limits assumed); assay: cell-based or functional assay
[10] = target: T1, human tissue factor (TF), …; assay: cell-based or functional assay; remark: listed apart in the source
[11] = target: T1, human tissue factor (TF), …; assay: FACS, TF transfected CHO cells (S1015-TF), 7.5 µg/mL
Method: as §1

[12] = target: T1, human tissue factor (TF), …; assay: FACS, Bx-PC3 cells, 30 µg/mL
Method: as §1

[13] = target: T1, human tissue factor (TF), …; assay: cell-based or functional assay; remark: listed apart in the source
[14] = target: T4, TFECDHis (extracellular domain of tissue factor, amino acid 1-251, with C-terminal His tag) (human, UniProt P13726 33-251); assay: competition ELISA, inhibition of FVIIa (100 nM) binding to coated TFECDHis
T4 construct: range 1-251; The stated range 1-251 starts at residue 1 of NP-001984; also called extracellular domain of TF
Method: ELISA plates were coated overnight with TFECDHis (0.5 μg/mL, 100 μL per well). Plates were emptied, blocked with PBS containing 2% (v/v) chicken serum (1 hour, RT), and emptied again. […] Plates were washed and incubated with swine-anti-rabbit IgG-HRP antibody (1:2,500; DAKO). After washing, the immune complexes were visualized using ABTS as a substrate.

[15] = target: T1, human tissue factor (TF), …; assay: FACS on SK-OV-3 cells (~60.000 TF molecules/cell) [panel SK-OV-3 cells]
Method: as §1
Binding of anti-TF HuMabs to membrane-bound TF on cell lines expressing different levels of TF was determined by FACS analysis, essentially as described supra. […] Fluorescence was measured on a FACSCantoII. Binding curves were analyzed essentially as described supra, using GraphPad Prism 5 software. The amount of TF molecules on cell lines was determined by Qifi kit (Dako, Glostrup, Denmark), according to the manufacturer's instructions.

[16] = target: T2, murine tissue factor (TF) on …; assay: FACS on transfected HEK293F cells, 30 µg/mL antibody [panel B]
[17] = target: T4, TFECDHis (extracellular domain of …); assay: ELISA, coated TFECDHis, mean of 3
Method: The specificity of the obtained anti-TF HuMabs was evaluated by ELISA. ELISA plates (Microlon; Greiner Bio-One) were coated overnight at +4° C. with 0.5 μg/mL of TFECDHis in PBS, pH 7.4. Coated ELISA plates were emptied and blocked for one hour at room temperature with 2% (v/v) chicken serum (Gibco, Paisley, Scotland) in PBS and washed with PBS containing 0.05% Tween 20 (PBST). Subsequently, HuMabs, serially diluted in PBSTC (PBS supplemented with 2% (v/v) chicken serum and 0.05% (v/v) Tween-20), were incubated for 1 hr at RT under shaking conditions (300 rpm). Bound HuMabs were detected using HRP-conjugated goat-anti-human IgG antibodies (Jackson ImmunoResearch) diluted 1:5,000 in PBSTC, which were incubated for 1 hr at RT under shaking conditions (300 rpm). […] HuMab-KLH (a human monoclonal antibody against KLH (keyhole limpet haemocyanin)), was used as a negative control. Mouse anti-human TF (ERL) was used as positive control (HRP labeled anti-mouse IgG as conjugate). Binding curves were analyzed using non-linear regression (sigmoidal dose-response with variable slope) using GraphPad Prism V4.03 software.

[18] = target: T4, TFECDHis (extracellular domain of …); assay: SPR BIAcore 3000, HuMab immobilized, TFECDHis analyte
Method: Antibody binding to TF was analyzed by surface plasmon resonance in a BIAcore 3000 (GE Healthcare). TFECDHis was used for the analysis. HuMab antibodies (500 resonance units) were immobilized on the CM-5 sensor chip according to the procedure recommended by the manufacturer. Briefly, after surface activation by EDC and NHS HuMab antibody was injected over the activated CM-5 surface in 10 mM sodium-acetate, pH ranging from 4.0 to 5.5 at 5 μl/min. followed by 1 M Ethanolamine for deactivation. Concentration series of TFECDHis in HBS-EP buffer were injected over the immobilized antibodies at a flow rate of 30 μl/min for 180 sec. Regeneration of the HuMab surface was performed by injection of 10 mM Glycine-HCl pH 2.0 or 10 mM sodium acetate pH 3.0. Kinetic analysis was performed using double reference subtraction and model 1:1 (langmuir) binding analysis.

[19] = target: T4, TFECDHis (extracellular domain of …); assay: ELISA on coated extracellular domain of TF, detection with HRP-conjugated donkey anti-human H+L
[20] = target: T1, human tissue factor (TF), …; assay: FACS on AsPC-1 cells (~175.000 TF molecules/cell) [panel AsPC-1 cells]
Method: as §1
(§2) Binding of anti-TF HuMabs to membrane-bound TF on cell lines expressing different levels of TF was determined by FACS analysis, essentially as described supra. Mouse anti-TF antibody followed by PE-conjugated anti-mouse IgGFc was used as a positive control. Fluorescence was measured on a FACSCantoII. Binding curves were analyzed essentially as described supra, using GraphPad Prism 5 software. The amount of TF molecules on cell lines was determined by Qifi kit (Dako, Glostrup, Denmark), according to the manufacturer's instructions.

[21] = target: T1, human tissue factor (TF), …; assay: FACS on MDA-MB-231 cells (~900.000 TF molecules/cell) [panel MDA-MB-231 cells]
Method: as §1, §2

TF (Innovin) [22] = target: T3, TF (Innovin); assay: cell-based or functional assay; remark: listed apart in the source
[23] = target: T2, murine tissue factor (TF) on …; assay: FACS on transfected HEK293F cells, 30 µg/mL antibody [panel J]
[24] = target: T2, murine tissue factor (TF) on …; assay: FACS on transfected HEK293F cells, 30 µg/mL antibody [panel G]

B1: anti-TF HuMab 044 (antibody, V domains shown)
VH: QVQLVESGGGVVQPGRSLRLSCAASGFTFSDYAMHWVRQAPGKGLEWVAVIPYDGDNKYYADSVKGRFTISRDNSKNTLYLQMNSLRAEDTAVYYCAREDWGLEVDYWGQGALVTVSS
VL: AIQLTQSPSSLSASVGDRVTITCRASQGINSALAWYQQKPGKAPKLLIYDASSLESGVPSRFSGSGSGTDFTLTISSLQPEDFATYYCQQFNSYPLTFGGGTKVEIK
notes: Human monoclonal antibody from HuMab mice
- Max MFI [1]: 2650
- Max MFI [2]: 1880
- EC50 [3]: 0.87 nM
- EC50 [4]: 2.13 nM
- EC50 [5]: 1.88 nM
- binding result [6]: no binding (tested: 30 µg/mL)
- EC50 [7]: 1.45 nM
- EC50 of ADCC, A431 cells [8]: 0.19 nM
- EC50 of ADCC, Bx-PC3 cells [8]: 0.12 nM
- EC50 of ADCC, MDA-MB-231 cells [8]: 0.08 nM
- % max inhibition of FXa generation (TF (Innovin) [9]): 3%
- IC50, inhibition of FVIIa induced IL-8 release (MDA-MB-231) [10]: 74.6 nM
- max inhibition of FVIIa induced IL-8 release (MDA-MB-231) [10]: 17.2%
- Max MFI [11]: 5020
- Max MFI [12]: 1140
- % max inhibition of FVIIa induced ERK phosphorylation (A431) [13]: 45%
- IC50, inhibition of FVIIa induced ERK phosphorylation (A431) [13]: > 66.6 nM
- IC50 [14]: 0.8 nM
- max inhibition [14]: 54%

B2: anti-TF HuMab 011 (antibody, V domains shown)
VH: EVQLLESGGGLVQPGGSLRLSCAASGFTFSNYAMSWVRQAPGKGLEWVSSISGSGDYTYYTDSVKGRFTISRDNSKNTLYLQMNSLRAEDTAVYYCARSPWGYYLDSWGQGTLVTVSS
VL: DIQMTQSPPSLSASAGDRVTITCRASQGISSRLAWYQQKPEKAPKSLIYAASSLQSGVPSRFSGSGSGTDFTLTISSLQPEDFATYYCQQYNSYPYTFGQGTKLEIK
notes: Human monoclonal antibody from HuMab mice; also called HuMab-TF-11
- EC50 (read off the curve) [15]: ~0.02 mg/L
- binding result [16]: no binding (tested: 30 µg/mL)
- EC50 [17]: 0.16 nM
- Max MFI [1]: 2610
- Max MFI [2]: 2140
- EC50 [4]: 1.32 nM
- Kd [18]: 3.15 nM
- EC50 [5]: 1.01 nM
- EC50 [7]: 0.2 nM
- EC50 (read off the curve) [19]: ~0.1 mg/L
- Max MFI [11]: 5650
- Max MFI [12]: 1280
- EC50 (read off the curve) [20]: ~0.07 mg/L
- EC50 (read off the curve) [21]: ~0.03 mg/L
- IC50, inhibition of blood coagulation (TF induced clotting time) (TF (Innovin) [22]): 1.6 nM

B3: anti-TF HuMab 092-A09 (antibody, V domains shown)
VH: EVQLLESGGGLVQPGGSLRLSCAASGFTFNNYAMSWVRQAPGKGLEWVSSISGSGGRTYYADSVKGRFTISRDNSKNTLFLQMNSLRAEDTAVYYCAKTPWGYYFDYWGQGTLVTVSS
VL: DIQMTQSPSSLSASVGDRVTITCRASQGISSRLAWYQQKPEKAPKSLIYAASSLQSGVPSRFSGSGSGTDFTLTISSLQPEDFATYYCQQYNSYPYTFGQGTKLEIK
notes: as for B1
- EC50 [17]: 0.18 nM
- Max MFI [1]: 3140
- Max MFI [2]: 2290
- EC50 [3]: 0.53 nM
- EC50 [4]: 1.32 nM
- Kd [18]: 14.1 nM
- binding result [23]: no binding (tested: 30 µg/mL)
- EC50 [5]: 0.84 nM
- EC50 [7]: 0.83 nM
- Max MFI [11]: 5410
- Max MFI [12]: 1260
- IC50, inhibition of blood coagulation (TF induced clotting time) (TF (Innovin) [22]): 0.2 nM
- max inhibition [14]: 90%

B4: anti-TF HuMab 042 (antibody, V domains shown)
VH: EVQLLESGGGLVQPGGSLRLSCAASGFTFSSYGMSWVRQAPGKGLEWVSVISGSGGTTYYADSVKGRFTISRDNSKNTLYLQMNSLRAEDTAVYYCAKAPWTYYFDYWGQGTLVTVSS
VL: not shown
notes: as for B1
- binding result [24]: no binding (tested: 30 µg/mL)
